Literature values in article PMC8223436.
pKd: −log10 of the molar value.

Molecular target: HER2 domain IV (Homo sapiens) (UniProt P04626)

- pKd: 9.25
Substance: Trastuzumab
